Assay results taken from publication PMC5352116, “Quinacrine induces apoptosis in cancer cells by forming a functional bridge between TRAIL-DR5 complex and modulating the mitochondrial intrinsic cascade” (Oncotarget, 2016).

Biological target: T1, Death Receptor 5 (DR5) (human (endogenous in MCF-10A-Tr), UniProt O14763 56-440)
T1 construct: Death receptor 5 (DR5, TRAIL-R2/Killer), endogenous in MCF-10A-Tr cells (derived from the human breast epithelial line MCF-10A); precipitated with an anti-DR5 antibody; also called TRAIL-R2; Killer; source: endogenous, MCF-10A-Tr cells (on cells; RIPA lysate)
Test: co-IP; DISC analysis: MCF-10A-Tr cells untreated or treated with QC, TRAIL or TRAIL (10 ng/mL, 3 h) then QC (2.5 uM, 48 h); RIPA lysate, pre-cleared with sepharose-4B beads, immunoprecipitated with anti-DR5 antibody at 4°C overnight; western blot
Details: partners not purified

B1: Fas-Associated protein with Death Domain (FADD) (natural protein, human (endogenous in MCF-10A-Tr), UniProt Q13158 1-208, looked up)
chain: MDPFLVLLHSVSSSLSSSELTELKFLCLGRVGKRKLERVQSGLDLFSMLLEQNDLEPGHTELLRELLASLRRHDLLRRVDDFEAGAAAGAAPGEEDLCAAFNVICDNVGKDWRRLARQLKVSDTKIDSIEDRYPRNLTERVRESLRIWKNTEKENATVAHLVGALRSCQMNLVADLVQEVQQARDLQNRSGAMSPMSWNSDASTSEAS
notes: FADD, adaptor protein of the DISC, endogenous in MCF-10A-Tr cells; source: endogenous, MCF-10A-Tr lysate
fold level in the DISC (anti-DR5 immunoprecipitate), TRAIL+QC treated against untreated cells: 8 fold
